How the values were obtained:
[1] = biological target: VEGF-A165 (produced from CHO cell) (UniProt P15692); assay: ELISA titration (0-3 nM), VEGF-A coated, anti-human Fc-HRP
[2] = biological target: Ang2 (produced from CHO cell) (UniProt O15123); assay: ELISA titration, Ang2 coated, anti-human Fc-HRP
Sequence of UniProt O15123 (O15123 19-496 limits assumed): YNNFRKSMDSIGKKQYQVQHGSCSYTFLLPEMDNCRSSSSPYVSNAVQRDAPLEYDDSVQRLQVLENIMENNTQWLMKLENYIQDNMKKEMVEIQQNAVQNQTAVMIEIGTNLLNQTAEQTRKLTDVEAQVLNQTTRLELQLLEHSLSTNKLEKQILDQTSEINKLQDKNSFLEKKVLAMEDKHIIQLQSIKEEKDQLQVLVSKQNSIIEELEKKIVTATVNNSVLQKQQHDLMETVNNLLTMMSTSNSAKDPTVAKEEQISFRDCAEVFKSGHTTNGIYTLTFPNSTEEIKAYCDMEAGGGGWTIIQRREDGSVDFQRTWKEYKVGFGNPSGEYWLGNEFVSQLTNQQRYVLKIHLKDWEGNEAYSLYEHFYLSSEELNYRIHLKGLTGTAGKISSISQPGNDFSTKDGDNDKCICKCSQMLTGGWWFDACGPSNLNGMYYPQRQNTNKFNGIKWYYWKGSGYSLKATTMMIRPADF

Sequence of UniProt P15692 (P15692 other isoform, or with tags, fused parts or gaps limits assumed): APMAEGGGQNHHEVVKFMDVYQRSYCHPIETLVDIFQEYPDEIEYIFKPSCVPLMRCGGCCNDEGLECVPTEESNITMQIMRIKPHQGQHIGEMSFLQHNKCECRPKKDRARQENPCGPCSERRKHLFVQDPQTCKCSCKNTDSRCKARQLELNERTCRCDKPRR

| Kd [1] [nM] | Kd [2] [nM] | Substance |
| --- | --- | --- |
| 0.001 |  | VEGF-trap (Fc fusion) |
|  | 50 | Tie2-Fc (Fc fusion) |
